What all share (assay): cell-based or functional assay
The target in assay [1] is HIV-1 Env of isolate MGRM-Chronic-B-001, clade B, on pseudovirus (HIV-1).
The target of assay [2] is HIV-1 Env of isolate MGRM-D-028 (clade D pseudovirus) (HIV-1).
Assay [3] deals with HIV-1 Env of isolate MGRM-Chronic-B-008, clade B, on pseudovirus (HIV-1).
Assay [4] concerns the target HIV-1 Env of pseudovirus MGRM-G-025 (HIV-1, clade G isolate MGRM-G-025).
Assay [5] concerns the target HIV-1 Env of isolate MGRM-D-005 (clade D pseudovirus) (HIV-1).
Assay [6] has as its target HIV-1 Env of pseudovirus MGRM-F1-017 (HIV-1).
For assay [7], the target named is envelope protein of aMLV pseudovirus (negative control).
For assay [8], the target named is HIV-1 envelope glycoprotein (Env) of isolate 92RW026, clade A (HIV-1).
For assay [9], the target named is HIV-1 Env of pseudovirus MGRM-F1-006 (HIV-1).
Assay [10] deals with HIV-1 Env of isolate MGRM-D-003 (clade D pseudovirus) (HIV-1).
Assay [11] concerns the target HIV-1 Env of pseudovirus MGRM-F1-021 (HIV-1).
Assay [12] concerns the target HIV-1 Env of isolate SC422661.8 (Acute), clade B, on pseudovirus (HIV-1).
Assay [13] concerns the target HIV-1 Env of pseudovirus MGRM-F1-018 (HIV-1).
Assay [14] has as its target HIV-1 Env of isolate VLGCA1 (clade A pseudovirus) (HIV-1).
The target in assay [15] is HIV-1 IAVI-C3 envelope glycoprotein (Env) on pseudovirus (HIV-1).
Assay [16] has as its target HIV-1 Env of isolate MGRM-D-019 (clade D pseudovirus) (HIV-1).
Assay [17] addresses HIV-1 Env of isolate 98IN022 (clade C) (HIV-1 isolate 98IN022).
Assay [18] addresses HIV-1 Env of pseudovirus MGRM-AE-007 (clade CRF01_AE) (HIV-1).
Assay [19] concerns the target HIV-1 Env of pseudovirus MGRM-AE-002 (clade CRF01_AE) (HIV-1).

Where only a bound is given, the exact number is not on record here.

Chain of 1443_C16 (PG16) (TCN-116) (antibody) (VH): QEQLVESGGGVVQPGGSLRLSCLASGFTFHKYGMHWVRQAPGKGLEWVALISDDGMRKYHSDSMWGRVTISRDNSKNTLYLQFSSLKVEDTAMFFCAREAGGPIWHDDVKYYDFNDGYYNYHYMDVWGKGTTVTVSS
Chain of 1443_C16 (PG16) (TCN-116) (antibody) (VL): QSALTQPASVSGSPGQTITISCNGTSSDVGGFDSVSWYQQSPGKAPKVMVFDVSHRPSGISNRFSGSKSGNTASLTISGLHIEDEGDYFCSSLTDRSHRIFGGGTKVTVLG

Usually IC50 stands for the concentration that inhibits the measured activity by half. The low end stands for inhibition by little substance, the high end for a need for much substance. Turning to 2F5 (antibody), the IC50 (µg/ml), pseudovirus neutralization in assay [1] was 0.55 µg/mL; in [2], over 50 µg/mL; in assay [3], over 50 µg/mL; in assay [4] it was over 50 µg/mL; in assay [5], over 50 µg/mL; in assay [6], over 50 µg/mL. The IC50 (µg/ml), pseudovirus neutralization in [7] is over 50 µg/mL; in [8] it was 8.63 µg/mL; in [9], 1.1 µg/mL; in assay [10], over 50 µg/mL; in [11], 1.37 µg/mL; in assay [12], over 50 µg/mL. The IC50 (µg/ml), pseudovirus neutralization in assay [13] was 3.91 µg/mL; in assay [14] it was 3.9 µg/mL; in assay [16], 0.14 µg/mL; in assay [17], over 50 µg/mL. Moreover, in [15], the IC50, pseudovirus neutralization was over 50 µg/mL. In addition, the results for the half-maximal inhibitory concentration (IC50) in assay [18] and in assay [19] were 0.07 µg/mL and 0.31 µg/mL, respectively.

Regarding 2G12 (antibody), the IC50 (µg/ml), pseudovirus neutralization in [1] was 0.08 µg/mL; in assay [2], over 50 µg/mL; in assay [3] it was 0.55 µg/mL; in assay [4], 31.9 µg/mL; in [5], 25.7 µg/mL; in [6], over 50 µg/mL. The IC50 (µg/ml), pseudovirus neutralization was over 50 µg/mL in assay [7]; 17.2 µg/mL in [8]; over 50 µg/mL in assay [9]; over 50 µg/mL in [10]; 14.1 µg/mL in assay [11]; 0.84 µg/mL in assay [12]. Besides, the IC50 (µg/ml), pseudovirus neutralization in [13], in assay [14], in assay [16] and in assay [17] was over 50 µg/mL throughout. In [15], this substance returned an IC50, pseudovirus neutralization of over 50 µg/mL. Further, the half-inhibitory concentration (IC50) in [18] and in [19] was over 50 µg/mL each time.

4E10 (antibody): the IC50 (µg/ml), pseudovirus neutralization in assay [1] was determined as 1.46 µg/mL; in [2], 1.28 µg/mL; in assay [3], 16.7 µg/mL; in assay [4], 1.7 µg/mL; in assay [5], 35.2 µg/mL; in assay [6], 4.92 µg/mL. Further, the IC50 (µg/ml), pseudovirus neutralization in [7] is over 50 µg/mL; in assay [8], 12.9 µg/mL; in [9], 1.01 µg/mL; in assay [10] it was 2.49 µg/mL; in [11] it was 1.87 µg/mL; in assay [12] it was 6.35 µg/mL. The IC50 (µg/ml), pseudovirus neutralization turned out to be 3.6 µg/mL in assay [13], 4.58 µg/mL in [14], 0.04 µg/mL in assay [16] and 0.53 µg/mL in assay [17]. The substance further gave an IC50, pseudovirus neutralization in assay [15] of 5 µg/mL. Moreover, the IC50 in assay [18] amounted to 0.45 µg/mL; in [19] it was 0.55 µg/mL.

With 1443_C16 (PG16) (TCN-116) (antibody), the IC50 (µg/ml), pseudovirus neutralization in [1] was over 50 µg/mL; in assay [2], over 50 µg/mL; in assay [3], 0.73 µg/mL; in assay [4], over 50 µg/mL; in assay [5] it was 19.7 µg/mL; in assay [6], over 50 µg/mL. Also, the IC50 (µg/ml), pseudovirus neutralization in [7] was over 50 µg/mL; in assay [8], 0.03 µg/mL; in assay [9], 0.27 µg/mL; in [10] it was 0.01 µg/mL; in assay [11], over 50 µg/mL; in [12], 1.13 µg/mL. The IC50 (µg/ml), pseudovirus neutralization in assay [13] was determined as 0.01 µg/mL; in assay [14] it was 0.18 µg/mL; in [16] it was 0.01 µg/mL; in [17] it was 0.003 µg/mL. This substance also showed an IC50, pseudovirus neutralization in assay [15] of 14.8 µg/mL. The values for the IC50 in assay [18] and in [19] were 0.04 µg/mL and 0.01 µg/mL, respectively.

Take 1495_C14 (PGC14) (antibody): the IC50 (µg/ml), pseudovirus neutralization in assay [1], in assay [2], in assay [3], in assay [4], in assay [5] and in [6] was over 50 µg/mL each time. The IC50 (µg/ml), pseudovirus neutralization in assay [7] is over 50 µg/mL; in [8], over 50 µg/mL; in assay [9], over 50 µg/mL; in assay [10] it was over 50 µg/mL; in assay [11] it was 46 µg/mL; in [12], over 50 µg/mL. The IC50 (µg/ml), pseudovirus neutralization in assay [13] is over 50 µg/mL; in [14], over 50 µg/mL; in assay [16] it was over 50 µg/mL; in assay [17], 9 µg/mL. This substance also came in with an IC50, pseudovirus neutralization in assay [15] of over 50 µg/mL. Besides, the IC50 in [18] and in assay [19] was over 50 µg/mL in each case.

b12 (antibody): the IC50 (µg/ml), pseudovirus neutralization in assay [1] is 0.75 µg/mL; in assay [2] it was 0.78 µg/mL; in [3], 2.82 µg/mL; in assay [4], over 50 µg/mL; in assay [5], over 50 µg/mL; in assay [6], over 50 µg/mL. The IC50 (µg/ml), pseudovirus neutralization in [7] was over 50 µg/mL; in [8], over 50 µg/mL; in assay [9] it was over 50 µg/mL; in assay [10], over 50 µg/mL; in assay [11] it was over 50 µg/mL; in assay [12], 6.11 µg/mL. Further, the IC50 (µg/ml), pseudovirus neutralization in assay [13] is over 50 µg/mL; in [14], over 50 µg/mL; in assay [16], over 50 µg/mL; in assay [17], 0.42 µg/mL. The IC50, pseudovirus neutralization in [15] was 5 µg/mL. The IC50 in assay [18] is over 50 µg/mL; in assay [19], 17.1 µg/mL.
